Test results published in patent US20250353921A1.
“And” between values parts separate entries of the source, which are not always exact repeats. Equal entries are not always repeated.

How the values were obtained:
[1] = target: human OX40 (TNFRSF4, CD134) on cells (human) (UniProt P43489); assay: cell-based or functional assay
[2] = target: Human OX40 (Acro Biosystems, catalog NO: OXO-H5224) protein (human) (UniProt P43489); assay: SPR Biacore 8K+, single cycle kinetics, antibody captured by anti-human Fc, OX40 analyte, pH 7.4, 25 °C
Chain of Human OX40 (Acro Biosystems, catalog NO: OXO-H5224) protein (human) (P43489 29-216 limits assumed): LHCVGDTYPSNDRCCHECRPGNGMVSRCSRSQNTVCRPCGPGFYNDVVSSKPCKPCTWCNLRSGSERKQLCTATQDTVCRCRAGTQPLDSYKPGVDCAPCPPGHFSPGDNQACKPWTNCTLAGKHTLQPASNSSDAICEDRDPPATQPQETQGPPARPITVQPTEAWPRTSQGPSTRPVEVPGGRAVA

[3] = target: human OX40 (TNFRSF4, CD134) on cells (human) (UniProt P43489); assay: flow cytometry on Jurkat-NFκB (OX40) cells, detection with anti-human IgG Fc-AF647

Chain of human OX40 (TNFRSF4, CD134) on cells (human) (P43489 29-277 limits assumed): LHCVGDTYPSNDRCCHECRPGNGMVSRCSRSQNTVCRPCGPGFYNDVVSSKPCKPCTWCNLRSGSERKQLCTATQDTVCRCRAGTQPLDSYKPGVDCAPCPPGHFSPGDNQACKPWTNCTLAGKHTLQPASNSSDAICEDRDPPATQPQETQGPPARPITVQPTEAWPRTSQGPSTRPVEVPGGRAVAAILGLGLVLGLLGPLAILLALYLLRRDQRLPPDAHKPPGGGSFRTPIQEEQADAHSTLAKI

AMG451 (rocatinlimab) (antibody)
ADCC EC50, activated T cells [1]: 0.008 nM | ADCC EC50, in vitro differentiated Tregs [1]: 0.005 nM | ADCC EC50, regulatory T cells (LDH release) [1]: 0.05 nM | EC50, inhibition of IL-2 release [1]: 5.87 nM | EC50, inhibition of IL-4 release [1]: 1.77 nM | EC50, inhibition of IL-5 release [1]: 18.6 nM | EC50, inhibition of IL-8 release [1]: 4.05 nM | EC50, inhibition of IL-10 release [1]: 20.3 nM | EC50, inhibition of IL-13 release [1]: 4 nM | EC50, inhibition of IL-17a release [1]: 11.7 nM | EC50, inhibition of IL-21 release [1]: 2.75 nM | EC50, inhibition of IL-22 release [1]: 10.4 nM | EC50, inhibition of IL-31 release [1]: 1.84 nM | EC50, inhibition of T cell proliferation [1]: 0.15 nM and 0.019 µg/ml | EC50, inhibition of TNF-α release [1]: 3.9 nM | Maximum killing (%), ADCC, activated T cells [1]: 60.3% | Maximum killing (%), ADCC, regulatory T cells [1]: 85.8% | responders (Resp) of donors tested, coated T cell agonism assay (responders of 9 donors) [1]: 7 | Kd [2]: 3 nM

IMG-007 (antibody)
luminescence, Jurkat-NFκB-OX40 agonism assay [1]: 3 fold

IgG1 control (antibody)
Maximum killing (%), ADCC, activated T cells [1]: 2.27% | Maximum killing (%), ADCC, regulatory T cells [1]: -0.83% | average proliferation index (Av), coated T cell agonism assay [1]: 1.16 | responders (Resp) of donors tested, coated T cell agonism assay (responders of 15 donors) [1]: 0

MEDI0562 (humanized 9B12, tavolixizumab) (antibody)
average proliferation index (Av), coated T cell agonism assay [1]: 3.41 | luminescence, Jurkat-NFκB-OX40 agonism assay [1]: > 2 fold | responders (Resp) of donors tested, coated T cell agonism assay (responders of 11 donors) [1]: 9 | EC50 (read off the curve) [3]: 0.1 µg/mL
